The values that follow come from patent publication US20160015831A1.

The target of experiment [1] is human CD22 (human) (UniProt P20273). The experiment is described as follows: flow cytometry, Raji cells, 10 µg/mL.
Experiment [2] shares this target. Description: flow cytometry, RL cells, 10 µg/mL.
Experiment [3] shares this target. The experiment is described as follows: flow cytometry, Daudi cells, 10 µg/ml.
The target is the same in experiment [4]. The experiment is described as follows: flow cytometry, Ramos cells, 10 µg/mL.
Experiment [5] shares this target. Description: flow cytometry, Daudi cells, 10 µg/mL.
Experiment [6] shares this target. Description: flow cytometry, REH cells, 10 µg/ml.

Turning to isotype control antibody human IgG, the MFI with human CD22 (human) [1] amounted to 6.2; in the experiment with human CD22 (human) [2], 12.8; with human CD22 (human) [3], 26.1; in the experiment with human CD22 (human) [4], 5.4; with human CD22 (human) [5], 8.3; in the experiment with human CD22 (human) [6], 4.5.
